B1: SK to RI (VHH)
VHH: TRVDQTPRTATKETGESLTINCVLRDASYAVGSTCWFRKNPGTTDEERISIGGRYVESVNKGAKSFSLRIKDLTVADSATYYCGVSTYNWCGVRGLGCVHGACGDGTALTVK
B2: SP15-096-13 (VHH)
VHH: TRVDQTPRTATKETGESLTINCVLRDASYAVGSTCWFRKNPGTTDWERISIGGRYVESVNKGAKSFSLRIKDLTVADSATYYCGVSTYNWCGVRGLGCVHGACGDGTALTVK
B3: EK to WI (VHH)
VHH: TRVDQTPRTATKETGESLTINCVLRDASYAVGSTCWFRKNPGTTDWESISIGGRYVESVNKGAKSFSLRIKDLTVADSATYYCGVSTYNWCGVRGLGCVHGACGDGTALTVK
B4: K to I (VHH)
VHH: TRVDQTPRTATKETGESLTINCVLRDASYAVGSTCWFRKNPGTTDEESISIGGRYVESVNKGAKSFSLRIKDLTVADSATYYCGVSTYNWCGVRGLGCVHGACGDGTALTVK
B5: S to R (VHH)
VHH: TRVDQTPRTATKETGESLTINCVLRDASYAVGSTCWFRKNPGTTDEERISKGGRYVESVNKGAKSFSLRIKDLTVADSATYYCGVSTYNWCGVRGLGCVHGACGDGTALTVK
B6: SP15-096-123 (VHH)
VHH: TRVDQTPRTATKETGESLTINCVLRDASYAVGSTCWFRKNPGTTDEESISKGGRYVESVNKGAKSFSLRIKDLTVADSATYYCGVSTYNWCGVRGLGCVHGACGDGTALTVK
B7: E to W (VHH)
VHH: TRVDQTPRTATKETGESLTINCVLRDASYAVGSTCWFRKNPGTTDWESISKGGRYVESVNKGAKSFSLRIKDLTVADSATYYCGVSTYNWCGVRGLGCVHGACGDGTALTVK
B8: ES to WR (VHH)
VHH: TRVDQTPRTATKETGESLTINCVLRDASYAVGSTCWFRKNPGTTDWERISKGGRYVESVNKGAKSFSLRIKDLTVADSATYYCGVSTYNWCGVRGLGCVHGACGDGTALTVK
B9: DSTL096 (VHH)
VHH: RVDQTPRSVTKETGESLTINCVLRDASYAVGSTCWYRKKSGSTNEESISKGGRYVETVNSGSKSFSLRINDLTVEDGGTYRCGVSTYNWCGVRGLGCVHGACGDGTAVTVN

Each binder was assayed against Ebola virus nucleoprotein, recombinant construct consisting of the C-terminal portion of NP (Ebola virus (EBOV; formerly the Zaire ebolavirus)) (assay: SPR; ProteOn XPR36; […] (10 mM acetate pH 5.0); […]; Langmuir model).
Ebola virus nucleoprotein, recombinant construct consisting of the C-terminal portion of NP (Ebola virus (EBOV; formerly the Zaire ebolavirus)), sequence (P18272 641-739 limits assumed): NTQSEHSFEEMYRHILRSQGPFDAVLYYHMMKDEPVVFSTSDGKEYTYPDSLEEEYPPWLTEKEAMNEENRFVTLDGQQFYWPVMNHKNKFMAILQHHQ

B1 and B2 are within 1.5-fold of each other in Kd: 22 nM for the first, 27 nM for the second.

Going from B3 to B4, the Kd falls from 3.6 nM to 2.2 nM (1.6-fold). The second binds more tightly here.

First: B5
Second: B6
The Kd of the first is 6.2-fold higher: 2.3 nM for the first, 0.37 nM for the second.

Going from B7 to B8, the Kd rises from 0.34 nM to 12 nM (35-fold).

B9 was tested, and the Kd was 0.39 nM.
